From paper PMC7062800

Key:
[1] = test system: RdhK Hybrid A (Desulfitobacterium hafniense DCB-2 (chimera)); assay: EMSA; details: 200 uM Cl-OHPA; EMSA: 100 ng DNA, 2 uM protein, 200 uM effector, 15 uL; buffer 100 mM Tris-HCl pH 8.5, 40% glycerol, 10 mM MgCl2, 500 mM NaCl, 5 mM EDTA, 10 mM DTT …
[2] = test system: RdhK Hybrid B (Desulfitobacterium hafniense DCB-2 (chimera)); assay: EMSA; details: 200 uM Cl-OHPA; EMSA: 100 ng DNA, 2 uM protein, 200 uM effector, 15 uL; buffer 100 mM Tris-HCl pH 8.5, 40% glycerol, 10 mM MgCl2, 500 mM NaCl, 5 mM EDTA, 10 mM DTT …

Row | Sequence | binding signal [1] [% DNA bound] | binding signal [2] [% DNA bound]
1 | GAATTCTCAGGCGATGTAACCGCTTTCAAAGTTAATACACATTAATACTCTTAACAATGTGATAGCTATGATTGCACCG (double strand) [mgl-DB7] | 90 | 
2 | GAATTCTCAGGCGATGTAACCGCTTTCAAATTTAGTATACGCTAAATATCTTAACAATGTGATAGCTATGATTGCACCG (double strand) [mgl-DB8] | 100 | 100
